Reference: patent US20250026846A1 (JCR PHARMACEUTICALS, published 2025)

T1: recombinant monkey TfR (r monkey TfR: Sino Biological Inc.), crab-eating monkey TfR extracellular region with … (crab-eating monkey (Macaca fascicularis))
T1 construct: Bought from Sino Biological; also called r monkey TfR-ECD (Histag); not shown: histidine tag at the N-terminus
T1 chain: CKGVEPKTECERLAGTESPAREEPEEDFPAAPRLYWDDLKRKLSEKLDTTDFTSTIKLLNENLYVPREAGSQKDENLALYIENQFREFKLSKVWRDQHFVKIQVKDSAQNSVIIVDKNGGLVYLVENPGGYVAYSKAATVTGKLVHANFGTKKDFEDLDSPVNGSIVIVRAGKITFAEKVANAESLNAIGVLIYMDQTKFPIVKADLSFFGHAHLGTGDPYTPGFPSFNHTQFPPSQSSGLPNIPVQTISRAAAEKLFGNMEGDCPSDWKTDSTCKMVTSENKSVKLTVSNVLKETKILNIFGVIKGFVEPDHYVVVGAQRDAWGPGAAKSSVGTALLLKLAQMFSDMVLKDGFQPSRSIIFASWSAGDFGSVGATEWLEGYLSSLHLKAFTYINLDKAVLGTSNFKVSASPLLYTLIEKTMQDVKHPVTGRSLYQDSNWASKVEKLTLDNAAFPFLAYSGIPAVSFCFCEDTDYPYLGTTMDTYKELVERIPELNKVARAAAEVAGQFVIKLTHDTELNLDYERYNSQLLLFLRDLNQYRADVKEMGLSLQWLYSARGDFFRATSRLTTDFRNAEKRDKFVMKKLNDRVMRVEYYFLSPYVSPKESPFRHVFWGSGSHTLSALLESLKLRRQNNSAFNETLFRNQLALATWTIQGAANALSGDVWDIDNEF


What was measured:
[1] = molecular target: T1, recombinant monkey TfR (r monkey TfR: …); experiment: BLI (Octet RED96), His-tagged TfR ECD on Ni-NTA sensor
[2] = molecular target: T2, recombinant human TfR (r human TfR: Sino Biological Inc.), hTfR extracellular region with a histidine tag at … (human, UniProt P02786 89-760); experiment: as above
T2 construct: Bought from Sino Biological; also called r human TfR-ECD (Histag); recombinant hTfR; not shown: histidine tag at the N-terminus

Kd [1] | koff [1] | kon [1] | kon [2] | Kd [2] | koff [2] | Binder
< 0.001 nM | < 1e-07 s⁻¹ | 388000 M⁻¹ s⁻¹ | 721000 M⁻¹ s⁻¹ | < 0.001 nM | < 1e-07 s⁻¹ | Fab GS3-SGSH (other, also called Fab HC-GS3-SGSH) light: DIVMTQTPLSLSVTPGQPASISCRSSQSLVHSNGNTYLHWYLQKPGQSPQLLIYKVSNRFSGVPDRFSGSGSGTDFTLKISRVEAEDVGVYYCSQSTHVPWTFGQGTKVEIKRTVAAPSVFIFPPSDEQLKSGTASVVCLLNNFYPREAKVQWKVDNALQSGNSQESVTEQDSKDSTYSLSSTLTLSKADYEKHKVYACEVTHQGLSSPVTKSFNRGEC heavy: EVQLVQSGAEVKKPGESLKISCKGSGYSFMNYWLGWVRQMPGKGLEWMGDIYPGGDYPTYSEKFKVQVTISADKSISTAYLQLSSLKASDTAMYYCARSGNYDEVAYWGQGTLVTVSSASTKGPSVFPLAPSSKSTSGGTAALGCLVKDYFPEPVTVSWNSGALTSGVHTFPAVLQSSGLYSLSSVVTVPSSSLGTQTYICNVNHKPSNTKVDKKVEPKSCDKTHTGGGGSGGGGSGGGGSRPRNALLLLADDGGFESGAYNNSAIATPHLDALARRSLLFRNAFTSVSSCSPSRASLLTGLPQHQNGMYGLHQDVHHFNSFDKVRSLPLLLSQAGVRTGIIGKKHVGPETVYPFDFAYTEENGSVLQVGRNITRIKLLVRKFLQTQDDRPFFLYVAFHDPHRCGHSQPQYGTFCEKFGNGESGMGRIPDWTPQAYDPLDVLVPYFVPNTPAARADLAAQYTTVGRMDQGVGLVLQELRDAGVLNDTLVIFTSDNGIPFPSGRTNLYWPGTAEPLLVSSPEHPKRWGQVSEAYVSLLDLTPTILDWFSIPYPSYAIFGSKTIHLTGRSLLPALEAEPLWATVFGSQSHHEVTMSYPMRSVQHRHFRLVHNLNFKMPFPIDQDFYVSPTFQDLLNRTTAGQPTGWYKDLRHYYYRARWELYDRSRDPHETQNLATDPRFAQLLEMLRDQLAKWQWETHDPWVCAPDGVLEEKLSPQCQPLHNEL
 |  |  | 417000 M⁻¹ s⁻¹ | < 0.001 nM | < 1e-07 s⁻¹ | Fab GS3-PPT1 (other, also called Fab HC-GS3-PPT1) light: DIVMTQTPLSLSVTPGQPASISCRSSQSLVHSNGNTYLHWYLQKPGQSPQLLIYKVSNRFSGVPDRFSGSGSGTDFTLKISRVEAEDVGVYYCSQSTHVPWTFGQGTKVEIKRTVAAPSVFIFPPSDEQLKSGTASVVCLLNNFYPREAKVQWKVDNALQSGNSQESVTEQDSKDSTYSLSSTLTLSKADYEKHKVYACEVTHQGLSSPVTKSFNRGEC heavy: EVQLVQSGAEVKKPGESLKISCKGSGYSFMNYWLGWVRQMPGKGLEWMGDIYPGGDYPTYSEKFKVQVTISADKSISTAYLQLSSLKASDTAMYYCARSGNYDEVAYWGQGTLVTVSSASTKGPSVFPLAPSSKSTSGGTAALGCLVKDYFPEPVTVSWNSGALTSGVHTFPAVLQSSGLYSLSSVVTVPSSSLGTQTYICNVNHKPSNTKVDKKVEPKSCDKTHTGGGGSGGGGSGGGGSDPPAPLPLVIWHGMGDSCCNPLSMGAIKKMVEKKIPGIYVLSLEIGKTLMEDVENSFFLNVNSQVTTVCQALAKDPKLQQGYNAMGFSQGGQFLRAVAQRCPSPPMINLISVGGQHQGVFGLPRCPGESSHICDFIRKTLNAGAYSKVVQERLVQAEYWHDPIKEDVYRNHSIFLADINQERGINESYKKNLMALKKFVMVKFLNDSIVDPVDSEWFGFYRSGQAKETIPLQETSLYTQDRLGLKEMDNAGQLVFLATEGDHLQLSEEWFYAHIIPFLG

Continued, binder first:

Binder | Kd [1] | koff [1] | kon [1] | kon [2] | Kd [2] | koff [2]
Fab GS3-IDUA (other, also called Fab HC-GS3-IDUA) light: DIVMTQTPLSLSVTPGQPASISCRSSQSLVHSNGNTYLHWYLQKPGQSPQLLIYKVSNRFSGVPDRFSGSGSGTDFTLKISRVEAEDVGVYYCSQSTHVPWTFGQGTKVEIKRTVAAPSVFIFPPSDEQLKSGTASVVCLLNNFYPREAKVQWKVDNALQSGNSQESVTEQDSKDSTYSLSSTLTLSKADYEKHKVYACEVTHQGLSSPVTKSFNRGEC heavy: EVQLVQSGAEVKKPGESLKISCKGSGYSFMNYWLGWVRQMPGKGLEWMGDIYPGGDYPTYSEKFKVQVTISADKSISTAYLQLSSLKASDTAMYYCARSGNYDEVAYWGQGTLVTVSSASTKGPSVFPLAPSSKSTSGGTAALGCLVKDYFPEPVTVSWNSGALTSGVHTFPAVLQSSGLYSLSSVVTVPSSSLGTQTYICNVNHKPSNTKVDKKVEPKSCDKTHTGGGGSGGGGSGGGGSAEAPHLVHVDAARALWPLRRFWRSTGFCPPLPHSQADQYVLSWDQQLNLAYVGAVPHRGIKQVRTHWLLELVTTRGSTGRGLSYNFTHLDGYLDLLRENQLLPGFELMGSASGHFTDFEDKQQVFEWKDLVSSLARRYIGRYGLAHVSKWNFETWNEPDHHDFDNVSMTMQGFLNYYDACSEGLRAASPALRLGGPGDSFHTPPRSPLSWGLLRHCHDGTNFFTGEAGVRLDYISLHRKGARSSISILEQEKVVAQQIRQLFPKFADTPIYNDEADPLVGWSLPQPWRADVTYAAMVVKVIAQHQNLLLANTTSAFPYALLSNDNAFLSYHPHPFAQRTLTARFQVNNTRPPHVQLLRKPVLTAMGLLALLDEEQLWAEVSQAGTVLDSNHTVGVLASAHRPQGPADAWRAAVLIYASDDTRAHPNRSVAVTLRLRGVPPGPGLVYVTRYLDNGLCSPDGEWRRLGRPVFPTAEQFRRMRAAEDPVAAAPRPLPAGGRLTLRPALRLPSLLLVHVCARPEKPPGQVTRLRALPLTQGQLVLVWSDEHVGSKCLWTYEIQFSQDGKAYTPVSRKPSTFNLFVFSPDTGAVSGSYRVRALDYWARPGPFSDPVPYLEVPVPRGPPSPGNP | 1.32 nM | 0.000292 s⁻¹ | 221000 M⁻¹ s⁻¹ | 293000 M⁻¹ s⁻¹ |  | 
Fab GS3-ARSA (other, also called Fab HC-GS3-ARSA) light: DIVMTQTPLSLSVTPGQPASISCRSSQSLVHSNGNTYLHWYLQKPGQSPQLLIYKVSNRFSGVPDRFSGSGSGTDFTLKISRVEAEDVGVYYCSQSTHVPWTFGQGTKVEIKRTVAAPSVFIFPPSDEQLKSGTASVVCLLNNFYPREAKVQWKVDNALQSGNSQESVTEQDSKDSTYSLSSTLTLSKADYEKHKVYACEVTHQGLSSPVTKSFNRGEC heavy: EVQLVQSGAEVKKPGESLKISCKGSGYSFMNYWLGWVRQMPGKGLEWMGDIYPGGDYPTYSEKFKVQVTISADKSISTAYLQLSSLKASDTAMYYCARSGNYDEVAYWGQGTLVTVSSASTKGPSVFPLAPSSKSTSGGTAALGCLVKDYFPEPVTVSWNSGALTSGVHTFPAVLQSSGLYSLSSVVTVPSSSLGTQTYICNVNHKPSNTKVDKKVEPKSCDKTHTGGGGSGGGGSGGGGSRPPNIVLIFADDLGYGDLGCYGHPSSTTPNLDQLAAGGLRFTDFYVPVSLCTPSRAALLTGRLPVRMGMYPGVLVPSSRGGLPLEEVTVAEVLAARGYLTGMAGKWHLGVGPEGAFLPPHQGFHRFLGIPYSHDQGPCQNLTCFPPATPCDGGCDQGLVPIPLLANLSVEAQPPWLPGLEARYMAFAHDLMADAQRQDRPFFLYYASHHTHYPQFSGQSFAERSGRGPFGDSLMELDAAVGTLMTAIGDLGLLEETLVIFTADNGPETMRMSRGGCSGLLRCGKGTTYEGGVREPALAFWPGHIAPGVTHELASSLDLLPTLAALAGAPLPNVTLDGFDLSPLLLGTGKSPRQSLFFYPSYPDEVRGVFAVRTGKYKAHFFTQGSAHSDTTADPACHASSSLTAHEPPLLYDLSKDPGENYNLLGGVAGATPEVLQALKQLQLLKAQLDAAVTFGPSQVARGEDPALQICCHPGCTPRPACCHCPDPHA | 1.09 nM | 0.000281 s⁻¹ | 258000 M⁻¹ s⁻¹ | 670000 M⁻¹ s⁻¹ |  | 
Fab GS3-ASM (other, also called Fab HC-GS3-ASM) light: DIVMTQTPLSLSVTPGQPASISCRSSQSLVHSNGNTYLHWYLQKPGQSPQLLIYKVSNRFSGVPDRFSGSGSGTDFTLKISRVEAEDVGVYYCSQSTHVPWTFGQGTKVEIKRTVAAPSVFIFPPSDEQLKSGTASVVCLLNNFYPREAKVQWKVDNALQSGNSQESVTEQDSKDSTYSLSSTLTLSKADYEKHKVYACEVTHQGLSSPVTKSFNRGEC heavy: EVQLVQSGAEVKKPGESLKISCKGSGYSFMNYWLGWVRQMPGKGLEWMGDIYPGGDYPTYSEKFKVQVTISADKSISTAYLQLSSLKASDTAMYYCARSGNYDEVAYWGQGTLVTVSSASTKGPSVFPLAPSSKSTSGGTAALGCLVKDYFPEPVTVSWNSGALTSGVHTFPAVLQSSGLYSLSSVVTVPSSSLGTQTYICNVNHKPSNTKVDKKVEPKSCDKTHTGGGGSGGGGSGGGGSLSDSRVLWAPAEAHPLSPQGHPARLHRIVPRLRDVFGWGNLTCPICKGLFTAINLGLKKEPNVARVGSVAIKLCNLLKIAPPAVCQSIVHLFEDDMVEVWRRSVLSPSEACGLLLGSTCGHWDIFSSWNISLPTVPKPPPKPPSPPAPGAPVSRILFLTDLHWDHDYLEGTDPDCADPLCCRRGSGLPPASRPGAGYWGEYSKCDLPLRTLESLLSGLGPAGPFDMVYWTGDIPAHDVWHQTRQDQLRALTTVTALVRKFLGPVPVYPAVGNHESTPVNSFPPPFIEGNHSSRWLYEAMAKAWEPWLPAEALRTLRIGGFYALSPYPGLRLISLNMNFCSRENFWLLINSTDPAGQLQWLVGELQAAEDRGDKVHIIGHIPPGHCLKSWSWNYYRIVARYENTLAAQFFGHTHVDEFEVFYDEETLSRPLAVAFLAPSATTYIGLNPGYRVYQIDGNYSGSSHVVLDHETYILNLTQANIPGAIPHWQLLYRARETYGLPNTLPTAWHNLVYRMRGDMQLFQTFWFLYHKGHPPSEPCGTPCRLATLCAQLSARADSPALCRHLMPDGSLPEAQSLWPRPLFC | 2 nM | 0.000549 s⁻¹ | 274000 M⁻¹ s⁻¹ | 526000 M⁻¹ s⁻¹ | 0.0689 nM | 3.63e-05 s⁻¹
